Results reported in patent US20240190939A1 (SHATTUCK LABS, published 2024).

What was measured:
recombinant CD155 = target: T1, recombinant CD155; assay: ELISA: CD155/PVR capture, Fc-HRP detection
T1 construct: also called CD155/PVR

[1] = target: T2, mouse PVR on CHO-K1 cells (mouse); assay: flow cytometry on CHO-K1 cells expressing murine PVR
T2 construct: whole, on cells; also called CHOK1/PVR; mPVR engineered cell line

[2] = target: T3, human PD-L1 on CHO-K1 cells (human, UniProt Q9NZQ7 19-290); assay: flow cytometry on CHO-K1 cells expressing human PD-L1
T3 construct: whole, on cells; also called hPD-L1 engineered cell line; hPD-L1 over-expressing cell line
Excerpt: Cells were collected, washed, and stained with antibodies for the detection of the chimeric protein binding by flow cytometry.

human LTBR-His = target: T4, human LTBR-His (human, UniProt P36941 31-227, limits assumed); assay: ELISA: hLTBR-Fc His Tag capture, 'hLIGHT Biotinylated' detection, streptavidin HRP
T4 construct: also called hLTBR-His

recombinant human PD-L2 = target: T5, recombinant human PD-L2 (human, UniProt Q9BQ51 20-220); assay: biolayer interferometry (Octet), recombinant human PD-L2
T5 sequence (looked up): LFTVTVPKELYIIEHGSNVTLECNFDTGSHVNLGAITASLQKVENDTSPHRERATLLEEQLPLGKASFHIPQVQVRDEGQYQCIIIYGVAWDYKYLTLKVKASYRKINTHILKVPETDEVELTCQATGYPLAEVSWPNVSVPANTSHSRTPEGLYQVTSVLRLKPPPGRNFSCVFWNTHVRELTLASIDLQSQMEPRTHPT

hPDL1-Fc = target: T6, hPDL1-Fc (human, UniProt Q9NZQ7 19-238); assay: Dual ELISA: hPDL1-Fc capture, hLTBR-His detection, 6x His HRP (signal needs both hPDL1-Fc and hLTBR-His bound)
T6 construct: not shown: Fc, not identified
Protocol: For each chimeric protein ELISAs were performed under the following conditions: Heavy+Light Chain captured and detected with Fc-HRP (FIG. 13A and FIG. 13B, top left), a murine LTBR-His captured and detected with an antibody directed to murine LIGHT (FIG. 13A, top right) or human LTBR-His captured and detected with biotinylated human LIGHT (FIG. 138, top right), and mPD-L1 captured and detected with an antibody directed to mLIGHT (FIG. 13A, bottom left; “Dual ELISA”) or hPDL1-Fc captured and detected with hLTBR-His/6×His-HRP (FIG. 13A, bottom left; “Dual ELISA”).

T4 sequence (P36941 31-227 limits assumed): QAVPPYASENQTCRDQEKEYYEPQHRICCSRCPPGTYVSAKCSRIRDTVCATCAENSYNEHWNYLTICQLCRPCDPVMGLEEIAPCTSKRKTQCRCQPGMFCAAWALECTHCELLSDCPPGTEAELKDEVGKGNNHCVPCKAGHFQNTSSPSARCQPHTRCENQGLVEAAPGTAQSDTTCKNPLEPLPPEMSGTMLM
T6 sequence (Q9NZQ7 19-238 limits assumed): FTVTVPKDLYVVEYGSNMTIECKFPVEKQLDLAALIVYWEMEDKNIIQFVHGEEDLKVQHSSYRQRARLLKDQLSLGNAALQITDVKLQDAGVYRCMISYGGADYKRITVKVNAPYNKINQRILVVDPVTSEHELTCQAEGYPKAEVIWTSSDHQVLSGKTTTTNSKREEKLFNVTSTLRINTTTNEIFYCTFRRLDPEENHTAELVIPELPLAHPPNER
T3 sequence (Q9NZQ7 19-290): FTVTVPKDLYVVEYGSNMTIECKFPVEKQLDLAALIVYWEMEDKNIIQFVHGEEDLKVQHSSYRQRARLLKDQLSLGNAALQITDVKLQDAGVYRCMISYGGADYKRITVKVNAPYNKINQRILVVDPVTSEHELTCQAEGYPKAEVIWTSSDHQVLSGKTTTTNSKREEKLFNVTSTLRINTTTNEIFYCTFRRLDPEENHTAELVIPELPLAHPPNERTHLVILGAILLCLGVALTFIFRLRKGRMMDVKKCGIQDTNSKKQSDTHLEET

Binder	EC50 (read off the curve) (recombinant CD155)	EC50 [1]	EC50 [2]	EC50 (read off the curve) (human LTBR-His)	binding result (recombinant human PD-L2)	EC50 (read off the curve) (hPDL1-Fc)
murine TIGIT-Fc-LIGHT chimeric protein (Fc fusion) chain 1: TIDTKRNISAEEGGSVILQCHFSSDTAEVTQVDWKQQDQLLAIYSVDLGWHVASVFSDRVVPGPSLGLTFQSLTMNDTGEYFCTYHTYPGGIYKGRIFLKVQESSDDRNGLAQFQTAPLG chain 2: LHQRLGDIVAHLPDGGKGSWEKLIQDQRSHQANPAAHLTGANASLIGIGGPLLWETRLGLAFLRGLTYHDGALVTMEPGYYYVYSKVQLSGVGCPQGLANGLPITHGLYKRTSRYPKELELLVSRRSPCGRANSSRVWWDSSFLGGVVHLEAGEEVVVRVPGNRLVRPRDGTRSYFGAFMV	~5 nM	215 nM				
human PD-1-Fc-LIGHT chimeric protein (Fc fusion, also called hPD-1-Fc-LIGHT) LDSPDRPWNPPTFSPALLVVTEGDNATFTCSFSNTSESFVLNWYRMSPSNQTDKLAAFPEDRSQPGQDCRFRVTQLPNGRDFHMSVVRARRNDSGTYLCGAISLAPKAQIKESLRAELRVTERRAEVPTAHPSPSPRPAGQFQSKYGPPCPPCPAPEFLGGPSVFLFPPKPKDQLMISRTPEVTCVVVDVSQEDPEVQFNWYVDGVEVHNAKTKPREEQFNSTYRVVSVLTVLHQDWLSGKEYKCKVSSKGLPSSIEKTISNATGQPREPQVYTLPPSQEEMTKNQVSLTCLVKGFYPSDIAVEWESNGQPENNYKTTPPVLDSDGSFFLYSRLTVDKSRWQEGNVFSCSVLHEALHNHYTQKSLSLSLGKIEGRMDLQLHWRLGEMVTRLPDGPAGSWEQLIQERRSHEVNPAAHLTGANSSLTGSGGPLLWETQLGLAFLRGLSYHDGALVVTKAGYYYIYSKVQLGGVGCPLGLASTITHGLYKRTPRYPEELELLVSQQSPCGRATSSSRVWWDSSFLGGVVHLEAGEKVVVRVLDERLVRLRDGTRSYFGAFMV			48 nM	~20 nM	binds	~10 nM
